B1: Cyclin-dependent kinase 4 inhibitor D (Homo sapiens), P55273 (parent)
chain: MLLEEVRAGDRLSGAAARGDVQEVRRLLHRELVHPDALNRFGKTALQVMMFGSTAIALELLKQGASPNVQDTSGTSPVHDAARTGFLDTLKVLVEHGADVNVPDGTGALPIHLAVQEGHTAVVSFLAAESDLHRRDARGLTPLELALQRGAQDLVDILQGHMVAPL
B2: NADPH-dependent diflavin oxidoreductase 1 (Homo sapiens), Q9UHB4 (parent)
chain: MPSPQLLVLFGSQTGTAQDVSERLGREARRRRLGCRVQALDSYPVVNLINEPLVIFVCATTGQGDPPDNMKNFWRFIFRKNLPSTALCQMDFAVLGLGDSSYAKFNFVAKKLHRRLLQLGGSALLPVCLGDDQHELGPDAAVDPWLRDLWDRVLGLYPPPPGLTEIPPGVPLPSKFTLLFLQEAPSTGSEGQRVAHPGSQEPPSESKPFLAPMISNQRVTGPSHFQDVRLIEFDILGSGISFAAGDVVLIQPSNSAAHVQRFCQVLGLDPDQLFMLQPREPDVSSPTRLPQPCSMRHLVSHYLDIASVPRRSFFELLACLSLHELEREKLLEFSSAQGQEELFEYCNRPRRTILEVLCDFPHTAAAIPPDYLLDLIPVIRPRAFSIASSLLTHPSRLQILVAVVQFQTRLKEPRRGLCSSWLASLDPGQGPVRVPLWVRPGSLAFPETPDTPVIMVGPGTGVAPFRAAIQERVAQGQTGNFLFFGCRWRDQDFYWEAEWQELEKRDCLTLIPAFSREQEQKVYVQHRLRELGSLVWELLDRQGAYFYLAGNAKSMPADVSEALMSIFQEEGGLCSPDAAAYLARLQQTRRFQTETWA
partner: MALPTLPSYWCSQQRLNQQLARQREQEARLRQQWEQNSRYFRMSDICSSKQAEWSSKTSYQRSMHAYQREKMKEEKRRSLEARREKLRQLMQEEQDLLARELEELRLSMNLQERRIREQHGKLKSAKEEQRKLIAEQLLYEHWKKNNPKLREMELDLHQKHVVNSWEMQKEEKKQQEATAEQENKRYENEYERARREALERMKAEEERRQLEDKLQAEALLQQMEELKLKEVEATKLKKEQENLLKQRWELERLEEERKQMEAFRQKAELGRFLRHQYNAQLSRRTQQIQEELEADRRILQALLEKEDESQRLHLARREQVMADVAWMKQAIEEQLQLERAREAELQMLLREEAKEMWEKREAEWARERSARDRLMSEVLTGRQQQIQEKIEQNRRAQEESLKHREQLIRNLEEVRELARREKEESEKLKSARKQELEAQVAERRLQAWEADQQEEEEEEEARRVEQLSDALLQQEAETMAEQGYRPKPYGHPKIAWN
B3: Nuclear protein AMMECR1 (Homo sapiens), Q9Y4X0 (parent)
chain: MAAGCCGVKKQKLSSSPPSGSGGGGGASSSSHCSGESQCRAGELGLGGAGTRLNGLGGLTGGGSGSGCTLSPPQGCGGGGGGIALSPPPSCGVGTLLSTPAAATSSSPSSSSAASSSSPGSRKMVVSAEMCCFCFDVLYCHLYGYQQPRTPRFTNEPYPLFVTWKIGRDKRLRGCIGTFSAMNLHSGLREYTLTSALKDSRFPPMTRDELPRLFCSVSLLTNFEDVCDYLDWEVGVHGIRIEFINEKGSKRTATYLPEVAKEQGWDHIQTIDSLLRKGGYKAPITNEFRKTIKLTRYRSEKMTLSYAEYLAHRQHHHFQNGIGHPLPPYNHYS
B4: Keratin, type II cytoskeletal 2 epidermal (Homo sapiens), P35908 (parent)
chain: MSCQISCKSRGRGGGGGGFRGFSSGSAVVSGGSRRSTSSFSCLSRHGGGGGGFGGGGFGSRSLVGLGGTKSISISVAGGGGGFGAAGGFGGRGGGFGGGSSFGGGSGFSGGGFGGGGFGGGRFGGFGGPGGVGGLGGPGGFGPGGYPGGIHEVSVNQSLLQPLNVKVDPEIQNVKAQEREQIKTLNNKFASFIDKVRFLEQQNQVLQTKWELLQQMNVGTRPINLEPIFQGYIDSLKRYLDGLTAERTSQNSELNNMQDLVEDYKKKYEDEINKRTAAENDFVTLKKDVDNAYMIKVELQSKVDLLNQEIEFLKVLYDAEISQIHQSVTDTNVILSMDNSRNLDLDSIIAEVKAQYEEIAQRSKEEAEALYHSKYEELQVTVGRHGDSLKEIKIEISELNRVIQRLQGEIAHVKKQCKNVQDAIADAEQRGEHALKDARNKLNDLEEALQQAKEDLARLLRDYQELMNVKLALDVEIATYRKLLEGEECRMSGDLSSNVTVSVTSSTISSNVASKAAFGGSGGRGSSSGGGYSSGSSSYGSGGRQSGSRGGSGGGGSISGGGYGSGGGSGGRYGSGGGSKGGSISGGGYGSGGGKHSSGGGSRGGSSSGGGYGSGGGGSSSVKGSSGEAFGSSVTFSFR
partner: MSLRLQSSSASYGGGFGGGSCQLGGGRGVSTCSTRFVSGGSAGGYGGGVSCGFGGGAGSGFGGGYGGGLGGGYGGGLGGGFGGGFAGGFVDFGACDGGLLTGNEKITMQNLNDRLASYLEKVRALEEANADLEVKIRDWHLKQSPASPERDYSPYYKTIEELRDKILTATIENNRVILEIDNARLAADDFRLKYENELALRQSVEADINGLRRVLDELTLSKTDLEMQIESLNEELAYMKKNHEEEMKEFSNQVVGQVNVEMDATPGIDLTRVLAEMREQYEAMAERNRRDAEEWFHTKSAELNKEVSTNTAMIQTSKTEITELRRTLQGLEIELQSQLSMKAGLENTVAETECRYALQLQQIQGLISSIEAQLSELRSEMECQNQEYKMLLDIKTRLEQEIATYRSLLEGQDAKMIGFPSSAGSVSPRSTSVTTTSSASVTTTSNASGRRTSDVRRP
B5: Tuftelin-interacting protein 11 (Homo sapiens), Q9UBB9 (parent)
chain: MSLSHLYRDGEGRIDDDDDERENFEITDWDLQNEFNPNRQRHWQTKEEATYGVWAERDSDDERPSFGGKRARDYSAPVNFISAGLKKGAAEEAELEDSDDEEKPVKQDDFPKDFGPRKLKTGGNFKPSQKGFAGGTKSFMDFGSWERHTKGIGQKLLQKMGYVPGRGLGKNAQGIINPIEAKQRKGKGAVGAYGSERTTQSMQDFPVVDSEEEAEEEFQKELSQWRKDPSGSKKKPKYSYKTVEELKAKGRISKKLTAPQKELSQVKVIDMTGREQKVYYSYSQISHKHNVPDDGLPLQSQQLPQSGKEAKAPGFALPELEHNLQLLIDLTEQEIIQNDRQLQYERDMVVNLFHELEKMTEVLDHEERVISNLSKVLEMVEECERRMQPDCSNPLTLDECARIFETLQDKYYEEYRMSDRVDLAVAIVYPLMKEYFKEWDPLKDCTYGTEIISKWKSLLENDQLLSHGGQDLSADAFHRLIWEVWMPFVRNIVTQWQPRNCDPMVDFLDSWVHIIPVWILDNILDQLIFPKLQKEVENWNPLTDTVPIHSWIHPWLPLMQARLEPLYSPIRSKLSSALQKWHPSDSSAKLILQPWKDVFTPGSWEAFMVKNIVPKLGMCLGELVINPHQQHMDAFYWVIDWEGMISVSSLVGLLEKHFFPKWLQVLCSWLSNSPNYEEITKWYLGWKSMFSDQVLAHPSVKDKFNEALDIMNRAVSSNVGAYMQPGARENIAYLTHTERRKDFQYEAMQERREAENMAQRGIGVAASSVPMNFKDLIETKAEEHNIVFMPVIGKRHEGKQLYTFGRIVIYIDRGVVFVQGEKTWVPTSLQSLIDMAK
partner: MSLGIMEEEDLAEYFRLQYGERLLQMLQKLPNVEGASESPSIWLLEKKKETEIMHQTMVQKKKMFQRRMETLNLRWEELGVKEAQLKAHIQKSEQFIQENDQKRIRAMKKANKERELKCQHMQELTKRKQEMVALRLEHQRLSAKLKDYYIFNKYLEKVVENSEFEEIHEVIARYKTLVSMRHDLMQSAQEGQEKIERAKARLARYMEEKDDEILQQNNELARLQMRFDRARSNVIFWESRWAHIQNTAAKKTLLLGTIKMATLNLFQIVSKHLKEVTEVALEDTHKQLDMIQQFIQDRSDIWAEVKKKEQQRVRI
B6: Rho guanine nucleotide exchange factor 39 (Homo sapiens), Q8N4T4 (parent)
chain: MELSCPGSRCPVQEQRARWERKRACTARELLETERRYQEQLGLVATYFLGILKAKGTLRPPERQALFGSWELIYGASQELLPYLEGGCWGQGLEGFCRHLELYNQFAANSERSQTTLQEQLKKNKGFRRFVRLQEGRPEFGGLQLQDLLPLPLQRLQQYENLVVALAENTGPNSPDHQQLTRAARLISETAQRVHTIGQKQKNDQHLRRVQALLSGRQAKGLTSGRWFLRQGWLLVVPPHGEPRPRMFFLFTDVLLMAKPRPPLHLLRSGTFACKALYPMAQCHLSRVFGHSGGPCGGLLSLSFPHEKLLLMSTDQEELSRWYHSLTWAISSQKN
partner: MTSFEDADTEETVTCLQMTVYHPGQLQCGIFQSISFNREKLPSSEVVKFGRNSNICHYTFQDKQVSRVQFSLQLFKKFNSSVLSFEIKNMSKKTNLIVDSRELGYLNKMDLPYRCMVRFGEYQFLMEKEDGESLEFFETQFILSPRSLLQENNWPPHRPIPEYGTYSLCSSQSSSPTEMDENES

Variants of: B1
Conditions: with cdk6_human CDK6, Q00534
In the case of V94M, the “effect of a mutation on the interaction” value is reported as “with no effect”.
With P67L the “effect of a mutation on the interaction” value was “with no effect”.
A121S was tested, and the “effect of a mutation on the interaction” value was “with no effect”.

Variants of: B1
Conditions: with nr4a1_human NR4A1, P22736
With A121S the “effect of a mutation on the interaction” value was “with no effect”.

Variants of: B1
Conditions: with cdk4_human CDK4, P11802
In the case of A121S, the “effect of a mutation on the interaction” value is reported as “with no effect”.

Variants of: B1
Conditions: with nr4a2_human NR4A2, P43354
A121S was tested, and the “effect of a mutation on the interaction” value was “with no effect”.

Variants of: B2
Conditions: with tchp_human TCHP
With P281L the “effect of a mutation on the interaction” value was “disrupting interaction strength”.

Variants of: B3
Conditions: with rbpms_human RBPMS
R207G was tested, and the “effect of a mutation on the interaction” value was “with no effect”.

Variants of: B4
Conditions: with KRT13, P13646
For A517G, the “effect of a mutation on the interaction” value was “with no effect”.

Variants of: B5
Conditions: with ccd42_human CCDC42, Q96M95
With S688L the “effect of a mutation on the interaction” value was “with no effect”.
R8Q was tested, and the “effect of a mutation on the interaction” value was “with no effect”.

Variants of: B6
Conditions: with tifa_human TIFA
With D204N the “effect of a mutation on the interaction” value was “with no effect”.

Reference: IntAct's records for PubMed 31515488
